Measured values published in article PMC7051176.

Target: mannose receptor (MR) (human (endogenous in primary monocyte-derived macrophages)) (UniProt P22897)

HIV-1 89.6 Env (from UniProt Q73372) (natural protein)
infection of primary human MDM by wild-type HIV-1 89.6 (intracellular Gag stain) with increasing concentrations of soluble mannan, normalized to 0 mg/mL mannan: 16 fold
